# Key:
# human α4β7 integrin [1] = molecular target: T1, human α4β7 integrin (human, UniProt P13612 34-1032; P26010 20-798); experiment: RPMI 8866 adhesion to chimera on protein A plate; chimera 1:2; preincubated with control anti-VCAM-1 MAb 2G7 (-); conditions: scale: raw fluorescence
# T1 construct: whole, on cells; also called α4β7 on RPMI 8866 cells; α4β7 on HuT 78 cells
# human α4β7 integrin [2] = molecular target: T1, human α4β7 integrin; experiment: RPMI 8866 adhesion to chimera on protein A plate; chimera 1:4; preincubated with control anti-VCAM-1 MAb 2G7 (-); conditions: scale: raw fluorescence
# human α4β7 integrin [3] = molecular target: T1, human α4β7 integrin; experiment: RPMI 8866 adhesion to chimera on protein A plate; chimera 1:8; preincubated with control anti-VCAM-1 MAb 2G7 (-); conditions: scale: raw fluorescence
# human α4β7 integrin [4] = molecular target: T1, human α4β7 integrin; experiment: RPMI 8866 adhesion to chimera on protein A plate; chimera 1:16; preincubated with control anti-VCAM-1 MAb 2G7 (-); conditions: scale: raw fluorescence
# human α4β7 integrin [5] = molecular target: T1, human α4β7 integrin; experiment: RPMI 8866 adhesion to chimera on protein A plate; chimera 1:32; preincubated with control anti-VCAM-1 MAb 2G7 (-); conditions: scale: raw fluorescence
# human α4β7 integrin [6] = molecular target: T1, human α4β7 integrin; experiment: RPMI 8866 adhesion to chimera on protein A plate; chimera neat; preincubated with control anti-VCAM-1 MAb 2G7 (-); conditions: scale: raw fluorescence
# human α4β7 integrin [7] = molecular target: T1, human α4β7 integrin; experiment: RPMI 8866 adhesion to chimera on protein A plate; chimera 1:2; preincubated with blocking anti-human MAdCAM MAb 10G3 (+); conditions: scale: raw fluorescence
# human α4β7 integrin [8] = molecular target: T1, human α4β7 integrin; experiment: RPMI 8866 adhesion to chimera on protein A plate; chimera 1:4; preincubated with blocking anti-human MAdCAM MAb 10G3 (+); conditions: scale: raw fluorescence
# human α4β7 integrin [9] = molecular target: T1, human α4β7 integrin; experiment: RPMI 8866 adhesion to chimera on protein A plate; chimera 1:8; preincubated with blocking anti-human MAdCAM MAb 10G3 (+); conditions: scale: raw fluorescence
# human α4β7 integrin [10] = molecular target: T1, human α4β7 integrin; experiment: RPMI 8866 adhesion to chimera on protein A plate; chimera 1:16; preincubated with blocking anti-human MAdCAM MAb 10G3 (+); conditions: scale: raw fluorescence
# human α4β7 integrin [11] = molecular target: T1, human α4β7 integrin; experiment: RPMI 8866 adhesion to chimera on protein A plate; chimera 1:32; preincubated with blocking anti-human MAdCAM MAb 10G3 (+); conditions: scale: raw fluorescence
# human α4β7 integrin [12] = molecular target: T1, human α4β7 integrin; experiment: RPMI 8866 adhesion to chimera on protein A plate; chimera neat; preincubated with blocking anti-human MAdCAM MAb 10G3 (+); conditions: scale: raw fluorescence
# human α4β7 integrin [13] = molecular target: T1, human α4β7 integrin; experiment: RPMI 8866 adhesion to chimera on protein A plate; supernatant 1:2; preincubated with control anti-VCAM-1 MAb 2G7 (-); conditions: scale: raw fluorescence
# human α4β7 integrin [14] = molecular target: T1, human α4β7 integrin; experiment: RPMI 8866 adhesion to chimera on protein A plate; supernatant 1:4; preincubated with control anti-VCAM-1 MAb 2G7 (-); conditions: scale: raw fluorescence
# human α4β7 integrin [15] = molecular target: T1, human α4β7 integrin; experiment: RPMI 8866 adhesion to chimera on protein A plate; supernatant 1:8; preincubated with control anti-VCAM-1 MAb 2G7 (-); conditions: scale: raw fluorescence
# human α4β7 integrin [16] = molecular target: T1, human α4β7 integrin; experiment: RPMI 8866 adhesion to chimera on protein A plate; supernatant 1:16; preincubated with control anti-VCAM-1 MAb 2G7 (-); conditions: scale: raw fluorescence
# human α4β7 integrin [17] = molecular target: T1, human α4β7 integrin; experiment: RPMI 8866 adhesion to chimera on protein A plate; supernatant 1:32; preincubated with control anti-VCAM-1 MAb 2G7 (-); conditions: scale: raw fluorescence
# human α4β7 integrin [18] = molecular target: T1, human α4β7 integrin; experiment: RPMI 8866 adhesion to chimera on protein A plate; supernatant neat; preincubated with control anti-VCAM-1 MAb 2G7 (-); conditions: scale: raw fluorescence
# human α4β7 integrin [19] = molecular target: T1, human α4β7 integrin; experiment: RPMI 8866 adhesion to chimera on protein A plate; supernatant 1:2; preincubated with blocking anti-human MAdCAM MAb 10G3 (+); conditions: scale: raw fluorescence
# human α4β7 integrin [20] = molecular target: T1, human α4β7 integrin; experiment: RPMI 8866 adhesion to chimera on protein A plate; supernatant 1:4; preincubated with blocking anti-human MAdCAM MAb 10G3 (+); conditions: scale: raw fluorescence
# human α4β7 integrin [21] = molecular target: T1, human α4β7 integrin; experiment: RPMI 8866 adhesion to chimera on protein A plate; supernatant 1:8; preincubated with blocking anti-human MAdCAM MAb 10G3 (+); conditions: scale: raw fluorescence
# human α4β7 integrin [22] = molecular target: T1, human α4β7 integrin; experiment: RPMI 8866 adhesion to chimera on protein A plate; supernatant 1:16; preincubated with blocking anti-human MAdCAM MAb 10G3 (+); conditions: scale: raw fluorescence
# human α4β7 integrin [23] = molecular target: T1, human α4β7 integrin; experiment: RPMI 8866 adhesion to chimera on protein A plate; supernatant 1:32; preincubated with blocking anti-human MAdCAM MAb 10G3 (+); conditions: scale: raw fluorescence
# human α4β7 integrin [24] = molecular target: T1, human α4β7 integrin; experiment: RPMI 8866 adhesion to chimera on protein A plate; supernatant neat; preincubated with blocking anti-human MAdCAM MAb 10G3 (+); conditions: scale: raw fluorescence
# human α4β7 integrin [25] = molecular target: T1, human α4β7 integrin; experiment: cell adhesion assay, CHO/P transfectants
# human α4β1 integrin = molecular target: T2, human α4β1 integrin (human, UniProt P13612 34-1032; P05556 21-798); experiment: Figure 4B: Jurkat adhesion to CHO/P transfectants
# T2 construct: whole, on cells; Carried by Jurkat and Ramos cells, which express α4β1 and not α4β7; also called α4β1 on Jurkat cells; α4β1 on Ramos cells
# human α4β7 integrin [26] = molecular target: T1, human α4β7 integrin; experiment: RPMI 8866 adhesion to CHO/P transfectants, 4°C
# T1 sequence (P13612 34-1032, chain 1 of 2): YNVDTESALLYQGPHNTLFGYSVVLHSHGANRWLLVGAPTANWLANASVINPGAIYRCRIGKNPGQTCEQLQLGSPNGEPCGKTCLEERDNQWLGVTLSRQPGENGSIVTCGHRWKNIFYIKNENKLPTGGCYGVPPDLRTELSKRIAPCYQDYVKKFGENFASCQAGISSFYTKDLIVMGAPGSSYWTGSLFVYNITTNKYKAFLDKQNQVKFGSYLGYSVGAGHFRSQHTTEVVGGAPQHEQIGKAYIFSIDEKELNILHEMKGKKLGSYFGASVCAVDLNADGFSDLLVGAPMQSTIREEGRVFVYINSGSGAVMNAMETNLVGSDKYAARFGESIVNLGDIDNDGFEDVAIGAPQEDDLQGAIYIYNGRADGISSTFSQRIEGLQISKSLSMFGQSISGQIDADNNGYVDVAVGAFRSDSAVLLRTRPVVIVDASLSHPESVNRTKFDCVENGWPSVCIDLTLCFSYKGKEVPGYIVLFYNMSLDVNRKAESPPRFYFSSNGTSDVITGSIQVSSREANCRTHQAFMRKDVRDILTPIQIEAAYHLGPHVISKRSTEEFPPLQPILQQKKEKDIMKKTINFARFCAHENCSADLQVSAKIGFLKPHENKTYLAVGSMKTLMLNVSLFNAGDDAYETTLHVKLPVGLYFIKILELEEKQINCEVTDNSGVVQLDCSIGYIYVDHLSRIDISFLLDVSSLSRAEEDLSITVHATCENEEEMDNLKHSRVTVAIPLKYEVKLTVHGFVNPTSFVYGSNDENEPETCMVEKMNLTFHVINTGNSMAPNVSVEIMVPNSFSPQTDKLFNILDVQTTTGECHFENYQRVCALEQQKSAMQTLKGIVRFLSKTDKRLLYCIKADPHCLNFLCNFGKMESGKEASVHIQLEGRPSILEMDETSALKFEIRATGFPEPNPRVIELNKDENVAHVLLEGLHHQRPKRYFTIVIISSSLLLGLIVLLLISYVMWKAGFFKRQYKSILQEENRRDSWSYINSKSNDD
# T1 sequence (P26010 20-798, chain 2 of 2): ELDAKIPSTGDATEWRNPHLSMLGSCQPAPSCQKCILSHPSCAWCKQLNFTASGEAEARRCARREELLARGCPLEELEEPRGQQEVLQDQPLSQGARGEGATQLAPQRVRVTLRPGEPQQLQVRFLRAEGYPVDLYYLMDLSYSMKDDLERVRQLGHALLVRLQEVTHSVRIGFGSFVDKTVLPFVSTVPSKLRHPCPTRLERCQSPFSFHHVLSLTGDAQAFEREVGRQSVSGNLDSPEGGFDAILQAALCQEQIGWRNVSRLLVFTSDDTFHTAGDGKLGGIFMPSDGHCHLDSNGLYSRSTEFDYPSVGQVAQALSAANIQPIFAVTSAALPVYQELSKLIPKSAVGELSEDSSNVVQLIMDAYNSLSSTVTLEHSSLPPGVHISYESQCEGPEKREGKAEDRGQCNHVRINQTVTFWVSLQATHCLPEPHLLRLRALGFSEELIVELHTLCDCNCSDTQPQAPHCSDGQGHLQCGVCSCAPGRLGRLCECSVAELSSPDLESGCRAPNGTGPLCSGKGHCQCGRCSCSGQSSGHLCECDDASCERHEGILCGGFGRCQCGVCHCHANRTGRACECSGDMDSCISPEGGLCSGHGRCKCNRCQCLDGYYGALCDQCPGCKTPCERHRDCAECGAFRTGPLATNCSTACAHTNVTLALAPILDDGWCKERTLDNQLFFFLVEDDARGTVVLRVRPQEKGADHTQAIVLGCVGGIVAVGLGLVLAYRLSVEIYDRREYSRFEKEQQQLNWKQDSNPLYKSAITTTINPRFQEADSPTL
# T2 sequence (P13612 34-1032, chain 1 of 2): as the sequence (P13612 34-1032, chain 1 of 2) above
# T2 sequence (P05556 21-798, chain 2 of 2): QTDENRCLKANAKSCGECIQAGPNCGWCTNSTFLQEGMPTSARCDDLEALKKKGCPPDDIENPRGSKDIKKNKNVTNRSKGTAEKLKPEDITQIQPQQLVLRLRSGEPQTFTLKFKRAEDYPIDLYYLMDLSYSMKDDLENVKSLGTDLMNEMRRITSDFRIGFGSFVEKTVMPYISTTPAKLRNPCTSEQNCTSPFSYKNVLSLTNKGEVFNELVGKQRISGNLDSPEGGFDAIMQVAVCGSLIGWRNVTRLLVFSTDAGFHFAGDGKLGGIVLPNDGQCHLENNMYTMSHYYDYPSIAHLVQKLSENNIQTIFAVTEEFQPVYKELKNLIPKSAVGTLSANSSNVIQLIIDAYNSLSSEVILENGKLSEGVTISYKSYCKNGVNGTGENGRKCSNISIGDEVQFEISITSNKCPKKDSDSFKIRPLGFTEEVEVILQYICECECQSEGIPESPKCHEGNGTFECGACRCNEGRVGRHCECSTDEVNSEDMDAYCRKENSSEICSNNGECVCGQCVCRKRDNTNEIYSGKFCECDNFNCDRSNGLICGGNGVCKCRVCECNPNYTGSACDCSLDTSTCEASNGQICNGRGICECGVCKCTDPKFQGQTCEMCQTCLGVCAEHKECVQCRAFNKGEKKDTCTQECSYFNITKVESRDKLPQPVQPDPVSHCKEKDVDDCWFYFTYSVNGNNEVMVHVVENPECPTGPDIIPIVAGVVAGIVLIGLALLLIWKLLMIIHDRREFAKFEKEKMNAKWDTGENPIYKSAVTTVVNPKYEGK
Molecule,fluorescence of bound RPMI 8866 cells (human α4β7 integrin [13]),fluorescence of bound RPMI 8866 cells (human α4β7 integrin [14]),fluorescence of bound RPMI 8866 cells (human α4β7 integrin [15]),fluorescence of bound RPMI 8866 cells (human α4β7 integrin [16]),fluorescence of bound RPMI 8866 cells (human α4β7 integrin [17]),fluorescence of bound RPMI 8866 cells (human α4β7 integrin [18]),fluorescence of bound RPMI 8866 cells (human α4β7 integrin [19]),fluorescence of bound RPMI 8866 cells (human α4β7 integrin [20]),fluorescence of bound RPMI 8866 cells (human α4β7 integrin [21]),fluorescence of bound RPMI 8866 cells (human α4β7 integrin [22]),fluorescence of bound RPMI 8866 cells (human α4β7 integrin [23]),fluorescence of bound RPMI 8866 cells (human α4β7 integrin [24]),binding result (human α4β1 integrin),also measured
"human MAdCAM-Ig chimera, construct HuMAdIg21 (entire extracellular domain of human MAdCAM-1 fused to Fc-mutated human IgG1 constant region) (from UniProt P01857 1-330) (Fc fusion)",,,,,,,,,,,,,,fluorescence of bound RPMI 8866 cells (human α4β7 integrin [1]): 196000; fluorescence of bound RPMI 8866 cells (human α4β7 integrin [2]): 196000; fluorescence of bound RPMI 8866 cells (human α4β7 integrin [3]): 18600; fluorescence of bound RPMI 8866 cells (human α4β7 integrin [4]): 4250; fluorescence of bound RPMI 8866 cells (human α4β7 integrin [5]): 3560; fluorescence of bound RPMI 8866 cells (human α4β7 integrin [6]): 196000; fluorescence of bound RPMI 8866 cells (human α4β7 integrin [7]): 3090; fluorescence of bound RPMI 8866 cells (human α4β7 integrin [8]): 1750; fluorescence of bound RPMI 8866 cells (human α4β7 integrin [9]): 2200; fluorescence of bound RPMI 8866 cells (human α4β7 integrin [10]): 482; fluorescence of bound RPMI 8866 cells (human α4β7 integrin [11]): 564; fluorescence of bound RPMI 8866 cells (human α4β7 integrin [12]): 3860
"human MAdCAM-Ig chimera in the supernatant of a cloned NSO line, Sample B (Fc fusion)",196000,196000,196000,52100,2930,196000,3630,3270,2980,1650,1520,6530,,
"human MAdCAM-Ig chimera in the supernatant of a cloned NSO line, Sample C (Fc fusion)",196000,35500,9570,21800,1930,196000,4090,3920,3490,2440,2570,4570,,
"human MAdCAM-Ig chimera in the supernatant of a cloned NSO line, Sample D (Fc fusion)",30800,46900,16300,5470,2660,196000,6790,6020,4510,6550,5120,7350,,
"seven domain human VCAM-1 (receptor, UniProt P19320 25-739, looked up, whole, on cells; Expressed on transiently transfected CHO/P cells; also called pCD3VCAM) FKIETTPESRYLAQIGDSVSLTCSTTGCESPFFSWRTQIDSPLNGKVTNEGTTSTLTMNPVSFGNEHSYLCTATCESRKLEKGIQVEIYSFPKDPEIHLSGPLEAGKPITVKCSVADVYPFDRLEIDLLKGDHLMKSQEFLEDADRKSLETKSLEVTFTPVIEDIGKVLVCRAKLHIDEMDSVPTVRQAVKELQVYISPKNTVISVNPSTKLQEGGSVTMTCSSEGLPAPEIFWSKKLDNGNLQHLSGNATLTLIAMRMEDSGIYVCEGVNLIGKNRKEVELIVQEKPFTVEISPGPRIAAQIGDSVMLTCSVMGCESPSFSWRTQIDSPLSGKVRSEGTNSTLTLSPVSFENEHSYLCTVTCGHKKLEKGIQVELYSFPRDPEIEMSGGLVNGSSVTVSCKVPSVYPLDRLEIELLKGETILENIEFLEDTDMKSLENKSLEMTFIPTIEDTGKALVCQAKLHIDDMEFEPKQRQSTQTLYVNVAPRDTTVLVSPSSILEEGSSVNMTCLSQGFPAPKILWSRQLPNGELQPLSENATLTLISTKMEDSGVYLCEGINQAGRSRKEVELIIQVTPKDIKLTAFPSESVKEGDTVIISCTCGNVPETWIILKKKAETGDTVLKSIDGAYTIRKAQLKDAGVYECESKNKVGSQLRSLTLDVQGRENNKDYFSPELLVLYFASSLIIPAIGMIIYFARKANMKGSYSLVEAQKSKV",,,,,,,,,,,,,binds,binding result (human α4β7 integrin [25]): no binding
"murine MAdCAM-1 (receptor, UniProt Q61826 22-405, looked up, whole, on cells; Expressed on transiently transfected CHO/P cells; also called pCDMAD-7) QSFQVNPPESEVAVAMGTSLQITCSMSCDEGVARVHWRGLDTSLGSVQTLPGSSILSVRGMLSDTGTPVCVGSCGSRSFQHSVKILVYAFPDQLVVSPEFLVPGQDQVVSCTAHNIWPADPNSLSFALLLGEQRLEGAQALEPEQEEEIQEAEGTPLFRMTQRWRLPSLGTPAPPALHCQVTMQLPKLVLTHRKEIPVLQSQTSPKPPNTTSAEPYILTSSSTAEAVSTGLNITTLPSAPPYPKLSPRTLSSEGPCRPKIHQDLEAGWELLCEASCGPGVTVRWTLAPGDLATYHKREAGAQAWLSVLPPGPMVEGWFQCRQDPGGEVTNLYVPGQVTPNSSSTVVLWIGSLVLGLLALVFLAYRLWKCYRPGPRPDTSSCTHL",,,,,,,,,,,,,no binding,binding result (human α4β7 integrin [26]): binds

# — EP0808367B1 (MILLENNIUM PHARMACEUTICALS, INC., dated 2007)
